The target in the experiment is T1, uPAR (species and form not stated).
T1 construct: also called uPA receptor

Results on 1 molecule are retold here after patent publication US20140023715A1 (EMORY UNIVERSITY, published 2014).

T1 sequence (Q03405 23-305): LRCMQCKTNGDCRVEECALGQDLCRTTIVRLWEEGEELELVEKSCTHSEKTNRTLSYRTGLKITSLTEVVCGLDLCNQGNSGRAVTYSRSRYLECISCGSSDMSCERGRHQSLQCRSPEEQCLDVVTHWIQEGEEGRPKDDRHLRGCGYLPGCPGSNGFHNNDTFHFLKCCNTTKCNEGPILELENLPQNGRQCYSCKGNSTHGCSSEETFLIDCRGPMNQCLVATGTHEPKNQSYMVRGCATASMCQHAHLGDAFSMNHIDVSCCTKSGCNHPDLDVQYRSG

B1: recombinant mouse amino terminal fragment (ATF, 135 aa) of uPA (ligand, UniProt P06869 21-155, looked up)
chain: GSVLGAPDESNCGCQNGGVCVSYKYFSRIRRCSCPRKFQGEHCEIDASKTCYHGNGDSYRGKANTDTKGRPCLAWNAPAVLQKPYNAHRPDAISLGLGKHNYCRNPDNQKRPWCYVQIGLRQFVQECMVHDCSLS
notes: range 1-135; 17 kDa, made in E. coli BL21; also called mouse ATF peptide; murine ATF; not shown: tag from vector pET101/D-TOPO (purified on Ni-NTA)
B1: the Kd – broadly, the constant that tells how readily two partners part at equilibrium – is < 1 nM.
